Test results as given in patent publication US20240182551A1 (published 2024).

T1: HCoV-HKU1 recombinant soluble S ectodomain protein (prefusion-stabilized trimer) (HCoV-HKU1)
T1 chain: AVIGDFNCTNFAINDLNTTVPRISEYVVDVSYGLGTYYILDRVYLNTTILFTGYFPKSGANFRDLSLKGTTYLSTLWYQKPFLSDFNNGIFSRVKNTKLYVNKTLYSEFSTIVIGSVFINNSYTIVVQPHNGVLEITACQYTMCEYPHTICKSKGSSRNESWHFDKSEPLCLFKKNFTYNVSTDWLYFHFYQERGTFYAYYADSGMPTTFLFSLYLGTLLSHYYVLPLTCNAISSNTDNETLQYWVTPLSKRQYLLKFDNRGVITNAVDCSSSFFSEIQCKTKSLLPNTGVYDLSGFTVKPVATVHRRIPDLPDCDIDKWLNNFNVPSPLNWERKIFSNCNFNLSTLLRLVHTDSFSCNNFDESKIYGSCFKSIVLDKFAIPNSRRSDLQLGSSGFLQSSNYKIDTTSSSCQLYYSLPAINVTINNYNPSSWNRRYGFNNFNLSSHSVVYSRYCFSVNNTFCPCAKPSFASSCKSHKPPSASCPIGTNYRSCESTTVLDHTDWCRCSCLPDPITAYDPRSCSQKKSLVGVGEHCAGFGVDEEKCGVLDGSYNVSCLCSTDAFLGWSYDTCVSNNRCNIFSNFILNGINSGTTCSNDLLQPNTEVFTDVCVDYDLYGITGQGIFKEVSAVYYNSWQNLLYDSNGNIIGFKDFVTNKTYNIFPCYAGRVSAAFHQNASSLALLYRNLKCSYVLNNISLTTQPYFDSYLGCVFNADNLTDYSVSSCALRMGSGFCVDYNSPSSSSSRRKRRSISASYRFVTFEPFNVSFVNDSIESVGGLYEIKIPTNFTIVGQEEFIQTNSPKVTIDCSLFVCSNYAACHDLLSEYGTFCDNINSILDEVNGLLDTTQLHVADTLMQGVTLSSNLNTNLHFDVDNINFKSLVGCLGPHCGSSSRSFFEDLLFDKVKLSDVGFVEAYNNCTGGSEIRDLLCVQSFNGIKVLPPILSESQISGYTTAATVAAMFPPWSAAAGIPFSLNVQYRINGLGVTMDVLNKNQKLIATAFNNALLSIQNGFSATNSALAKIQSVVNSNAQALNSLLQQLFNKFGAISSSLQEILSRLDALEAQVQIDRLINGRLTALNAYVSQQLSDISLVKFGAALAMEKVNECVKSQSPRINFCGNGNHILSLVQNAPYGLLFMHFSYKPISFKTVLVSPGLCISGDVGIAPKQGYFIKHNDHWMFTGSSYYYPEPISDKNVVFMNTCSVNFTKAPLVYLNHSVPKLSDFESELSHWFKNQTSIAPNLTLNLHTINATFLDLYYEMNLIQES

B1: CC9.3 IgG (antibody, V domains shown)
VH: QVQLQESGPGLVKPSETLSLTCTVSGGSIRSDFWSWIRQFPGKGLEWIGYIYYSGSTNYNPSLESRVTISVDTSKNEFSLKLNYVTAADTAIYYCARETRWNWLDSWGQGTLVTVSS
VL: DIVMTQSPDSLAVSLGERASINCKSSQTISYISNNKNYLAWYQQKPGQPPRLLIYWASTRESGVPDRFSGGGFGTDFTLTISSLQAEDVAVYYCQQYFNTPWTFGQGTKVEIK
B2: CC9.3 Fab (Fab, V domains shown)
VH: QVQLQESGPGLVKPSETLSLTCTVSGGSIRSDFWSWIRQFPGKGLEWIGYIYYSGSTNYNPSLESRVTISVDTSKNEFSLKLNYVTAADTAIYYCARETRWNWLDSWGQGTLVTVSS
VL: DIVMTQSPDSLAVSLGERASINCKSSQTISYISNNKNYLAWYQQKPGQPPRLLIYWASTRESGVPDRFSGGGFGTDFTLTISSLQAEDVAVYYCQQYFNTPWTFGQGTKVEIK
B3: CC40.8 IgG (antibody, V domains shown)
VH: EVQLLESGGGLVQPGGSLRLSCAASGFTFSSYVMTWARQAPGKGLEWVSAISGTGYTYYADSVKGRFTVSRDNSKNTLFLQMSSLRAEDTAVYYCAITMAPVVWGQGTTVTVSS
VL: SYELTQPPSVSVSPGQTARITCSGDALPKRYAYWYQQKSGQAPILVIYEDKKRPSGIPERLSGSKSGTVATLTISGAQVEDEADYYCYSTDSSGNHAVFGGGTQLTVL
B4: CC40.8 Fab (Fab, V domains shown)
VH: EVQLLESGGGLVQPGGSLRLSCAASGFTFSSYVMTWARQAPGKGLEWVSAISGTGYTYYADSVKGRFTVSRDNSKNTLFLQMSSLRAEDTAVYYCAITMAPVVWGQGTTVTVSS
VL: SYELTQPPSVSVSPGQTARITCSGDALPKRYAYWYQQKSGQAPILVIYEDKKRPSGIPERLSGSKSGTVATLTISGAQVEDEADYYCYSTDSSGNHAVFGGGTQLTVL
B5: CC9.2 Fab (Fab, V domains shown)
VH: EVQLVESGGGLVQPGRSLRLSCVAPGFTLGGYGMHWVRQAPGKGLEWVGLISYDGSVQKYGSSVKGRFTISKDNSKNTLYLEMNSLRADDTAVYFCVKGASLGDNWGQGTLVTVSS
VL: EIVMTQSPLSLPVTLGQPASISCRSSQSLVYSDGDTYMSWFHQRPGQSPRRLIYKVSNRDFGVPDRFSGSGSGTDFTLKISRVEAEDVGVYYCMQGTHWPYTFGPGTKVEIK
B6: CC9.2 IgG (antibody, V domains shown)
VH: EVQLVESGGGLVQPGRSLRLSCVAPGFTLGGYGMHWVRQAPGKGLEWVGLISYDGSVQKYGSSVKGRFTISKDNSKNTLYLEMNSLRADDTAVYFCVKGASLGDNWGQGTLVTVSS
VL: EIVMTQSPLSLPVTLGQPASISCRSSQSLVYSDGDTYMSWFHQRPGQSPRRLIYKVSNRDFGVPDRFSGSGSGTDFTLKISRVEAEDVGVYYCMQGTHWPYTFGPGTKVEIK
B7: Fab CC9.3 (Fab, V domains shown)
VH: QVQLQESGPGLVKPSETLSLTCTVSGGSIRSDFWSWIRQFPGKGLEWIGYIYYSGSTNYNPSLESRVTISVDTSKNEFSLKLNYVTAADTAIYYCARETRWNWLDSWGQGTLVTVSS
VL: DIVMTQSPDSLAVSLGERASINCKSSQTISYISNNKNYLAWYQQKPGQPPRLLIYWASTRESGVPDRFSGGGFGTDFTLTISSLQAEDVAVYYCQQYFNTPWTFGQGTKVEIK
B8: CC9.3 (IgG) (antibody, V domains shown)
VH: QVQLQESGPGLVKPSETLSLTCTVSGGSIRSDFWSWIRQFPGKGLEWIGYIYYSGSTNYNPSLESRVTISVDTSKNEFSLKLNYVTAADTAIYYCARETRWNWLDSWGQGTLVTVSS
VL: DIVMTQSPDSLAVSLGERASINCKSSQTISYISNNKNYLAWYQQKPGQPPRLLIYWASTRESGVPDRFSGGGFGTDFTLTISSLQAEDVAVYYCQQYFNTPWTFGQGTKVEIK
B9: CC40.8 (IgG) (antibody, V domains shown)
VH: EVQLLESGGGLVQPGGSLRLSCAASGFTFSSYVMTWARQAPGKGLEWVSAISGTGYTYYADSVKGRFTVSRDNSKNTLFLQMSSLRAEDTAVYYCAITMAPVVWGQGTTVTVSS
VL: SYELTQPPSVSVSPGQTARITCSGDALPKRYAYWYQQKSGQAPILVIYEDKKRPSGIPERLSGSKSGTVATLTISGAQVEDEADYYCYSTDSSGNHAVFGGGTQLTVL
B10: Fab CC40.8 (Fab, V domains shown)
VH: EVQLLESGGGLVQPGGSLRLSCAASGFTFSSYVMTWARQAPGKGLEWVSAISGTGYTYYADSVKGRFTVSRDNSKNTLFLQMSSLRAEDTAVYYCAITMAPVVWGQGTTVTVSS
VL: SYELTQPPSVSVSPGQTARITCSGDALPKRYAYWYQQKSGQAPILVIYEDKKRPSGIPERLSGSKSGTVATLTISGAQVEDEADYYCYSTDSSGNHAVFGGGTQLTVL
B11: Fab CC9.2 (Fab, V domains shown)
VH: EVQLVESGGGLVQPGRSLRLSCVAPGFTLGGYGMHWVRQAPGKGLEWVGLISYDGSVQKYGSSVKGRFTISKDNSKNTLYLEMNSLRADDTAVYFCVKGASLGDNWGQGTLVTVSS
VL: EIVMTQSPLSLPVTLGQPASISCRSSQSLVYSDGDTYMSWFHQRPGQSPRRLIYKVSNRDFGVPDRFSGSGSGTDFTLKISRVEAEDVGVYYCMQGTHWPYTFGPGTKVEIK
B12: CC9.2 (IgG) (antibody, V domains shown)
VH: EVQLVESGGGLVQPGRSLRLSCVAPGFTLGGYGMHWVRQAPGKGLEWVGLISYDGSVQKYGSSVKGRFTISKDNSKNTLYLEMNSLRADDTAVYFCVKGASLGDNWGQGTLVTVSS
VL: EIVMTQSPLSLPVTLGQPASISCRSSQSLVYSDGDTYMSWFHQRPGQSPRRLIYKVSNRDFGVPDRFSGSGSGTDFTLKISRVEAEDVGVYYCMQGTHWPYTFGPGTKVEIK

Each binder was assayed against SARS-CoV-2 S (SARS-CoV-2, UniProt P0DTC2 1-1208) (assay: BLI).

Question: Which Kd does the source give for B1 here?
Answer: Its Kd is 2 nM.

Question: For B2, which Kd is on record?
Answer: The Kd was 112 nM.

Question: With B3 as the binder, how does the Kd read?
Answer: Its Kd is 1 nM.

Question: With B4 as the binder, how does the Kd read?
Answer: Its Kd is 5 nM.

Question: B5 was tested. Which Kd did it give?
Answer: The Kd was 1680 nM.

Question: B6 was tested. Which Kd did it give?
Answer: Its Kd is 16 nM.

Biological target: T1, HCoV-HKU1 recombinant soluble S …
Assay: BLI

Question: B7 was tested. Which Kd did it give?
Answer: The Kd was under 1 nM.

Question: For B8, which Kd is on record?
Answer: Its Kd is under 1 nM.

Question: For B9, which Kd is on record?
Answer: Its Kd is under 1 nM.

Question: B10 was tested. Which Kd did it give?
Answer: The Kd was under 1 nM.

Question: For B11, which Kd is on record?
Answer: Its Kd is under 1 nM.

Question: Which Kd does the source give for B12 here?
Answer: The Kd was under 1 nM.
